In paper PMC2873289, “A Helix Replacement Mechanism Directs Metavinculin Functions” (PLoS ONE, 2010):
Numbering of substitutions follows the chain as printed. In names and notes the source's numbering stands. Blank lines part the entries; values can stand above or below the binder they belong to.

Legend:
[1] = target: the molecule itself; assay: SEC; Hiload 26/60 Superdex 200 calibrated with molecular weight markers; without PIP2
[2] = target: T1, GST tagged vinculin tail domain (GST-Vt; residues 879–1,066) (human, UniProt P18206-2 879-1066); assay: pull-down; GST-Vt on GST-Sepharose beads, with or without PIP2; tail domains (MVt, MVt-ΔH1) or Vh2–Vh3 as negative control; SDS-PAGE and Western blot with HRP-conjugated αHis or αGST antibodies; details: both partners purified
T1 construct: human vinculin tail domain, residues 879-1,066 of vinculin (1,066-residue isoform), cloned in pGEX-4T-1; source: E. coli BL21-DE3, purified (GSTrap FF, Superdex 75)
T1 sequence (looked up): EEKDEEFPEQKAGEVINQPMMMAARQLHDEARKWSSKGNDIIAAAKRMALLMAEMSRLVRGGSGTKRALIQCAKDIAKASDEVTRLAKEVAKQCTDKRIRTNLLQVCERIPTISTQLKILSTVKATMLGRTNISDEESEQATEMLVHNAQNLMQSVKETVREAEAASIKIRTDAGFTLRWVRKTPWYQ

[3] = target: T2, head domain of vinculin (VH; residues 1–843) (human, UniProt P18206 1-843); assay: native gel or EMSA; reciprocal tail displacement: competing tail domains titrated into preformed VH:tail complexes at 2- and 10-fold molar excess; details in Methods S1; details: both partners purified
T2 construct: human vinculin head domain, residues 1-843 (the same in vinculin and metavinculin)
T2 sequence (looked up): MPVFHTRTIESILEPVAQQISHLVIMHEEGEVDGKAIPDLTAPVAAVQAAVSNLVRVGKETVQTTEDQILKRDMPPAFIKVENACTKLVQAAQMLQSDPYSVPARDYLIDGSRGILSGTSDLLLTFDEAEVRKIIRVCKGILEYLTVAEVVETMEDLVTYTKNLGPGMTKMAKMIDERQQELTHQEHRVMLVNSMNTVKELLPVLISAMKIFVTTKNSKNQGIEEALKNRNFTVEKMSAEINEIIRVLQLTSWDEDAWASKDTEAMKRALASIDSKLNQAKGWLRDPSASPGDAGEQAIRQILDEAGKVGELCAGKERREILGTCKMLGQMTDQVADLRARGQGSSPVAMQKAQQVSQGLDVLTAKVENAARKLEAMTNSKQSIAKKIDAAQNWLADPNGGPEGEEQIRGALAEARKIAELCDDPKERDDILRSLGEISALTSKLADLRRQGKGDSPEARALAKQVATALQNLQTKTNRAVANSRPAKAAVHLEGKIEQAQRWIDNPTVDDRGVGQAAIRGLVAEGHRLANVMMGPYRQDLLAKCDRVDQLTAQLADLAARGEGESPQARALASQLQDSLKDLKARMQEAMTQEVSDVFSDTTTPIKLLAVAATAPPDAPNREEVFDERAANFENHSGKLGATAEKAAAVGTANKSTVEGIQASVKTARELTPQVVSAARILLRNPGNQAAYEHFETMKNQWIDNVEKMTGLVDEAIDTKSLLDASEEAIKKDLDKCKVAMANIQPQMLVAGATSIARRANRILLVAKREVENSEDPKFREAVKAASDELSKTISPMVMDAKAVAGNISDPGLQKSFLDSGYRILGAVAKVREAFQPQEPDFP

B1: metavinculin-ΔH1′ (lacking residues 963–983) (natural protein, human, UniProt P18206 1-1134, looked up)
chain: MPVFHTRTIESILEPVAQQISHLVIMHEEGEVDGKAIPDLTAPVAAVQAAVSNLVRVGKETVQTTEDQILKRDMPPAFIKVENACTKLVQAAQMLQSDPYSVPARDYLIDGSRGILSGTSDLLLTFDEAEVRKIIRVCKGILEYLTVAEVVETMEDLVTYTKNLGPGMTKMAKMIDERQQELTHQEHRVMLVNSMNTVKELLPVLISAMKIFVTTKNSKNQGIEEALKNRNFTVEKMSAEINEIIRVLQLTSWDEDAWASKDTEAMKRALASIDSKLNQAKGWLRDPSASPGDAGEQAIRQILDEAGKVGELCAGKERREILGTCKMLGQMTDQVADLRARGQGSSPVAMQKAQQVSQGLDVLTAKVENAARKLEAMTNSKQSIAKKIDAAQNWLADPNGGPEGEEQIRGALAEARKIAELCDDPKERDDILRSLGEISALTSKLADLRRQGKGDSPEARALAKQVATALQNLQTKTNRAVANSRPAKAAVHLEGKIEQAQRWIDNPTVDDRGVGQAAIRGLVAEGHRLANVMMGPYRQDLLAKCDRVDQLTAQLADLAARGEGESPQARALASQLQDSLKDLKARMQEAMTQEVSDVFSDTTTPIKLLAVAATAPPDAPNREEVFDERAANFENHSGKLGATAEKAAAVGTANKSTVEGIQASVKTARELTPQVVSAARILLRNPGNQAAYEHFETMKNQWIDNVEKMTGLVDEAIDTKSLLDASEEAIKKDLDKCKVAMANIQPQMLVAGATSIARRANRILLVAKREVENSEDPKFREAVKAASDELSKTISPMVMDAKAVAGNISDPGLQKSFLDSGYRILGAVAKVREAFQPQEPDFPPPPPDLEQLRLTDELAPPKPPLPEGEVPPPRPPPPEEKDEEFPEQKAGEVINQPMMMAARQLHDEARKWSSKPGIPAAEVGIGVVAEADAADAAGFPVPPDMEDDYEPELLLMPSNQPVGNDIIAAAKRMALLMAEMSRLVRGGSGTKRALIQCAKDIAKASDEVTRLAKEVAKQCTDKRIRTNLLQVCERIPTISTQLKILSTVKATMLGRTNISDEESEQATEMLVHNAQNLMQSVKETVREAEAASIKIRTDAGFTLRWVRKTPWYQ
notes: human metavinculin, full length (1-1,134) lacking residues 963-983 (α-helix H1′): 1-962 joined to 984-1,134; also called MV-ΔH1′; source: E. coli BL21-DE3, purified (as full-length metavinculin); not shown: His8, N-terminal, kept
- stoichiometry N [1]: 2

B2: metavinculin-ΔH1ΔH1′ (lacking residues 895–915 and 963–983) (natural protein, human, UniProt P18206 1-1134, looked up)
chain: MPVFHTRTIESILEPVAQQISHLVIMHEEGEVDGKAIPDLTAPVAAVQAAVSNLVRVGKETVQTTEDQILKRDMPPAFIKVENACTKLVQAAQMLQSDPYSVPARDYLIDGSRGILSGTSDLLLTFDEAEVRKIIRVCKGILEYLTVAEVVETMEDLVTYTKNLGPGMTKMAKMIDERQQELTHQEHRVMLVNSMNTVKELLPVLISAMKIFVTTKNSKNQGIEEALKNRNFTVEKMSAEINEIIRVLQLTSWDEDAWASKDTEAMKRALASIDSKLNQAKGWLRDPSASPGDAGEQAIRQILDEAGKVGELCAGKERREILGTCKMLGQMTDQVADLRARGQGSSPVAMQKAQQVSQGLDVLTAKVENAARKLEAMTNSKQSIAKKIDAAQNWLADPNGGPEGEEQIRGALAEARKIAELCDDPKERDDILRSLGEISALTSKLADLRRQGKGDSPEARALAKQVATALQNLQTKTNRAVANSRPAKAAVHLEGKIEQAQRWIDNPTVDDRGVGQAAIRGLVAEGHRLANVMMGPYRQDLLAKCDRVDQLTAQLADLAARGEGESPQARALASQLQDSLKDLKARMQEAMTQEVSDVFSDTTTPIKLLAVAATAPPDAPNREEVFDERAANFENHSGKLGATAEKAAAVGTANKSTVEGIQASVKTARELTPQVVSAARILLRNPGNQAAYEHFETMKNQWIDNVEKMTGLVDEAIDTKSLLDASEEAIKKDLDKCKVAMANIQPQMLVAGATSIARRANRILLVAKREVENSEDPKFREAVKAASDELSKTISPMVMDAKAVAGNISDPGLQKSFLDSGYRILGAVAKVREAFQPQEPDFPPPPPDLEQLRLTDELAPPKPPLPEGEVPPPRPPPPEEKDEEFPEQKAGEVIPGIPAAEVGIGVVAEADAADAAGFPVPPDMEDDYEPELLLMPSNQPVGNDIIAAAKRMALLMAEMSRLVRGGSGTKRALIQCAKDIAKASDEVTRLAKEVAKQCTDKRIRTNLLQVCERIPTISTQLKILSTVKATMLGRTNISDEESEQATEMLVHNAQNLMQSVKETVREAEAASIKIRTDAGFTLRWVRKTPWYQ
notes: human metavinculin, full length (1-1,134) lacking residues 895-915 (H1) and 963-983 (H1′); source: E. coli BL21-DE3, purified (as full-length metavinculin); not shown: His8, N-terminal, kept
- stoichiometry N [1]: 2

- binding result [2]: binds
B3: MVt-ΔH1 (residues 959–1,130) as detected by His-tag Western blot in the GST-Vt pull-down (domain or fragment, human, UniProt P18206 959-1130, looked up)
chain: NQPVNQPILAAAQSLHREATKWSSKGNDIIAAAKRMALLMAEMSRLVRGGSGTKRALIQCAKDIAKASDEVTRLAKEVAKQCTDKRIRTNLLQVCERIPTISTQLKILSTVKATMLGRTNISDEESEQATEMLVHNAQNLMQSVKETVREAEAASIKIRTDAGFTLRWVRKT
notes: human metavinculin (1,134 residues), residues 959-1,130; Same construct as m3; source: E. coli, auto-induction media, purified; not shown: His8, N-terminal, kept

- binding result [3]: binds
B4: MVt-ΔH1 (residues 959–1,130) (domain or fragment, human, UniProt P18206 959-1130, looked up)
chain: B3 chain
notes: human metavinculin (1,134 residues), residues 959-1,130 (five-helix bundle H1′, H2-H5); The His-detected form of the pull-down is m17; also called MVt five-helix bundle (α-helices H1′, H2–H5); not shown: His8, N-terminal, cleaved

- binding result [3]: binds
B5: metavinculin tail domain (MVt; residues 879–1,134) (domain or fragment, human, UniProt P18206 879-1134, looked up)
chain: EEKDEEFPEQKAGEVINQPMMMAARQLHDEARKWSSKPGIPAAEVGIGVVAEADAADAAGFPVPPDMEDDYEPELLLMPSNQPVNQPILAAAQSLHREATKWSSKGNDIIAAAKRMALLMAEMSRLVRGGSGTKRALIQCAKDIAKASDEVTRLAKEVAKQCTDKRIRTNLLQVCERIPTISTQLKILSTVKATMLGRTNISDEESEQATEMLVHNAQNLMQSVKETVREAEAASIKIRTDAGFTLRWVRKTPWYQ
notes: human metavinculin (1,134 residues) tail domain, residues 879-1,134; Tag-cleaved form as told in the purification methods; the His-detected form of the pull-down is m16; not shown: His6, N-terminal, cleaved

- binding result [3]: binds
B6: MVt-R975W (residues 879–1134) (domain or fragment, human, UniProt P18206 879-1134, looked up)
chain: B5 chain with R97W
notes: human metavinculin tail domain, residues 879-1,134, with the cardiomyopathy-associated mutation Arg975Trp; also called MVt-Arg975Trp; not shown: His6, N-terminal, cleaved
